Patent US20210246166A1 (Bayer, published 2021)
Numbered stars: 1 amine (or outer) side, 2 acyl side, 3 side chain; on linkers, the order of the positions; unused ones are H or OH. Bridge positions count the residues as written; N and C are the ends. Square brackets hold non-standard residues; d marks the D form. Ends that are not written are not given here. NH(CH2CH2O)5CH2CO = O=C(COCCOCCOCCOCCOCCN[*:1])[*:2]; Pro(3S,4R-methano) = O=C(O)[C@H]1NC[C@@H]2C[C@@H]21; Phe(3-COOH) = N[C@@H](Cc1cccc(C(=O)O)c1)C(=O)O; Oic = O=C(O)[C@@H]1C[C@@H]2CCCC[C@@H]2N1; tBuAla = CC(C)(C)C[C@H](N)C(=O)O; Cba = N[C@@H](CC1CCC1)C(=O)O; Pen = CC(C)(S)[C@H](N)C(=O)O; NMeC = CN[C@@H](CS)C(=O)O; PEG3 = NCCOCCOCCOCCC(=O)O; Orn = NCCC[C@H](N)C(=O)O; PEG2 = NCCOCCOCCC(=O)O; Sar = CNCC(=O)O

T1: recombinant human MASP1 active protease (amino acids 297-699, C-terminal His Tag) (human, UniProt P48740 297-699)
T1 sequence: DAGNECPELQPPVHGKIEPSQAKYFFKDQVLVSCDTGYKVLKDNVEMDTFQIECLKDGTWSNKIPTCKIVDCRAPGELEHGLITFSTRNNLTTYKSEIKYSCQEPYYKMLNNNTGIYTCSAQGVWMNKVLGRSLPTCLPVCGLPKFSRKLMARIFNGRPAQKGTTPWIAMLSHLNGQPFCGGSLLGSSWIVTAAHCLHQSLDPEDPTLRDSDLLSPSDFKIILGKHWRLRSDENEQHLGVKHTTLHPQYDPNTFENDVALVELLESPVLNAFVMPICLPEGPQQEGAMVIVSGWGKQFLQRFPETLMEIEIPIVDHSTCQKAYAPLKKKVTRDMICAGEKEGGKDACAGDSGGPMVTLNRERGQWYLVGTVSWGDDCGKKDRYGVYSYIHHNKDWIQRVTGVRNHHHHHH


Tests used:
[1] = target: T1, recombinant human MASP1 active protease …; experiment: cell-based or functional assay
[2] = target: recombinant human MASP2 active protease (amino acids 297-686, C-terminal His Tag) (human, UniProt O00187 297-686); experiment: cell-based or functional assay
recombinant human MASP2 active protease (amino acids 297-686, C-terminal His Tag), sequence (O00187 other isoform, or with tags, fused parts or gaps limits assumed): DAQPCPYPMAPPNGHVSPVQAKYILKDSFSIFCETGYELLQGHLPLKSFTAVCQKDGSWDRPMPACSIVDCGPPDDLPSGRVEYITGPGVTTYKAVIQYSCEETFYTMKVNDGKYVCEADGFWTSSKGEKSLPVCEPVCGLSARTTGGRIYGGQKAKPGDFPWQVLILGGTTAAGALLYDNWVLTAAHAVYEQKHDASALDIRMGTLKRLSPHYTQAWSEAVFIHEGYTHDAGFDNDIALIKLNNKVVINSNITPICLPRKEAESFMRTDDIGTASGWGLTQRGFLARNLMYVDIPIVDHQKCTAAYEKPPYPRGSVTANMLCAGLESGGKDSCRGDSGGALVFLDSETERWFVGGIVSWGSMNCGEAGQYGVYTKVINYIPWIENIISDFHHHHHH

| Binder | human MASP1 IC50 [1] | human MASP2 IC50 [2] |
| --- | --- | --- |
| [Orn]ICSRSLP[Oic]I[Pen]IPD-NH2 (disulfide 3-11; N-terminus assumed; SMILES CC[C@H](C)[C@H](NC(=O)[C@@H](N)CCCN)C(=O)N[C@H]1CSSC(C)(C)[C@@H](C(=O)N[C@H](C(=O)N2CCC[C@H]2C(=O)N[C@@H](CC(=O)O)C(N)=O)[C@@H](C)CC)NC(=O)[C@H]([C@@H](C)CC)NC(=O)[C@@H]2C[C@@H]3CCCC[C@@H]3N2C(=O)[C@@H]2CCCN2C(=O)[C@H](CC(C)C)NC(=O)[C@H](CO)NC(=O)[C@H](CCCNC(=N)N)NC(=O)[C@H](CO)NC1=O) [(Orn)-IC+SRSLP-(Oic)-I-(Pen)+IPD-NH2] | 2 nM | 76 nM |
| AICSRSLP[Oic]I[Pen]I-NH2 (disulfide 3-11; N-terminus assumed; SMILES CC[C@H](C)[C@H](NC(=O)[C@H]1NC(=O)[C@H]([C@@H](C)CC)NC(=O)[C@@H]2C[C@@H]3CCCC[C@@H]3N2C(=O)[C@@H]2CCCN2C(=O)[C@H](CC(C)C)NC(=O)[C@H](CO)NC(=O)[C@H](CCCNC(=N)N)NC(=O)[C@H](CO)NC(=O)[C@@H](NC(=O)[C@@H](NC(=O)[C@H](C)N)[C@@H](C)CC)CSSC1(C)C)C(N)=O) [AIC+SRSLP-(Oic)-I-(Pen)+I-NH2] | 2.1 nM | 98 nM |
| [Sar]ICSRS[tBuAla]PPI[Pen]IP[Phe(3-COOH)]-NH2 (disulfide 3-11; N-terminus assumed; SMILES CC[C@H](C)[C@H](NC(=O)CNC)C(=O)N[C@H]1CSSC(C)(C)[C@@H](C(=O)N[C@H](C(=O)N2CCC[C@H]2C(=O)N[C@@H](Cc2cccc(C(=O)O)c2)C(N)=O)[C@@H](C)CC)NC(=O)[C@H]([C@@H](C)CC)NC(=O)[C@@H]2CCCN2C(=O)[C@@H]2CCCN2C(=O)[C@H](CC(C)(C)C)NC(=O)[C@H](CO)NC(=O)[C@H](CCCNC(=N)N)NC(=O)[C@H](CO)NC1=O) [((N-Me)G)-IC+SRS-((tBu)A)-PPI-(Pen)+IP-((3-Carboxy)F)-NH2] | 2 nM | 42 nM |
| VICSRS[tBuAla]PPI[Pen]IPD-NH2 (disulfide 3-11; N-terminus assumed; SMILES CC[C@H](C)[C@H](NC(=O)[C@@H](N)C(C)C)C(=O)N[C@H]1CSSC(C)(C)[C@@H](C(=O)N[C@H](C(=O)N2CCC[C@H]2C(=O)N[C@@H](CC(=O)O)C(N)=O)[C@@H](C)CC)NC(=O)[C@H]([C@@H](C)CC)NC(=O)[C@@H]2CCCN2C(=O)[C@@H]2CCCN2C(=O)[C@H](CC(C)(C)C)NC(=O)[C@H](CO)NC(=O)[C@H](CCCNC(=N)N)NC(=O)[C@H](CO)NC1=O) [VIC+SRS-((tBu)A)-PPI-(Pen)+IPD-NH2] | 2 nM | 73 nM |
| [Sar]ICSRS[tBuAla]PPI[Pen]IP[NH(CH2CH2O)5CH2CO]-NH2 (disulfide 3-11; N-terminus assumed; SMILES CC[C@H](C)[C@H](NC(=O)CNC)C(=O)N[C@H]1CSSC(C)(C)[C@@H](C(=O)N[C@H](C(=O)N2CCC[C@H]2C(=O)NCCOCCOCCOCCOCCOCC(N)=O)[C@@H](C)CC)NC(=O)[C@H]([C@@H](C)CC)NC(=O)[C@@H]2CCCN2C(=O)[C@@H]2CCCN2C(=O)[C@H](CC(C)(C)C)NC(=O)[C@H](CO)NC(=O)[C@H](CCCNC(=N)N)NC(=O)[C@H](CO)NC1=O) [((N-Me)G)-IC+SRS-((tBu)A)-PPI-(Pen)+IP-(PEG5-CH2CO2H (18 atoms))-NH2] | 2 nM | 42 nM |
| [Sar]ICSRSLP[Oic]I[Pen]IPD[PEG2]-NH2 (disulfide 3-11; N-terminus assumed; SMILES CC[C@H](C)[C@H](NC(=O)CNC)C(=O)N[C@H]1CSSC(C)(C)[C@@H](C(=O)N[C@H](C(=O)N2CCC[C@H]2C(=O)N[C@@H](CC(=O)O)C(=O)NCCOCCOCCC(N)=O)[C@@H](C)CC)NC(=O)[C@H]([C@@H](C)CC)NC(=O)[C@@H]2C[C@@H]3CCCC[C@@H]3N2C(=O)[C@@H]2CCCN2C(=O)[C@H](CC(C)C)NC(=O)[C@H](CO)NC(=O)[C@H](CCCNC(=N)N)NC(=O)[C@H](CO)NC1=O) [((N-Me)G)-IC+SRSLP-(Oic)-I-(Pen)+IPD-(PEG1(10 atoms))-NH2] | 0.93 nM | 68 nM |
| [Sar]ICSRS[tBuAla]PPI[Pen]IP[Sar][Sar][Sar]-NH2 (disulfide 3-11; N-terminus assumed; SMILES CC[C@H](C)[C@H](NC(=O)CNC)C(=O)N[C@H]1CSSC(C)(C)[C@@H](C(=O)N[C@H](C(=O)N2CCC[C@H]2C(=O)N(C)CC(=O)N(C)CC(=O)N(C)CC(N)=O)[C@@H](C)CC)NC(=O)[C@H]([C@@H](C)CC)NC(=O)[C@@H]2CCCN2C(=O)[C@@H]2CCCN2C(=O)[C@H](CC(C)(C)C)NC(=O)[C@H](CO)NC(=O)[C@H](CCCNC(=N)N)NC(=O)[C@H](CO)NC1=O) [((N-Me)G)-IC+SRS-((tBu)A)-PPI-(Pen)+IP-((N-Me)G)-((N-Me)G)-((N-Me)G)-NH2] | 2 nM | 47 nM |
| LICSRS[tBuAla]PPI[NMeC]I-NH2 (disulfide 3-11; N-terminus assumed; SMILES CC[C@H](C)[C@H](NC(=O)[C@@H]1CSSC[C@H](NC(=O)[C@@H](NC(=O)[C@@H](N)CC(C)C)[C@@H](C)CC)C(=O)N[C@@H](CO)C(=O)N[C@@H](CCCNC(=N)N)C(=O)N[C@@H](CO)C(=O)N[C@@H](CC(C)(C)C)C(=O)N2CCC[C@H]2C(=O)N2CCC[C@H]2C(=O)N[C@@H]([C@@H](C)CC)C(=O)N1C)C(N)=O) [LIC+SRS-((tBu)A)-PPI-((N-Me)C)+I-NH2] | 2.2 nM | 98 nM |
| [Sar]ICSRS[tBuAla]PPI[Pen]IPD[Orn][Orn][Orn]-NH2 (disulfide 3-11; N-terminus assumed; SMILES CC[C@H](C)[C@H](NC(=O)CNC)C(=O)N[C@H]1CSSC(C)(C)[C@@H](C(=O)N[C@H](C(=O)N2CCC[C@H]2C(=O)N[C@@H](CC(=O)O)C(=O)N[C@@H](CCCN)C(=O)N[C@@H](CCCN)C(=O)N[C@@H](CCCN)C(N)=O)[C@@H](C)CC)NC(=O)[C@H]([C@@H](C)CC)NC(=O)[C@@H]2CCCN2C(=O)[C@@H]2CCCN2C(=O)[C@H](CC(C)(C)C)NC(=O)[C@H](CO)NC(=O)[C@H](CCCNC(=N)N)NC(=O)[C@H](CO)NC1=O) [((N-Me)G)-IC+SRS-((tBu)A)-PPI-(Pen)+IPD-(Orn)-(Orn)-(Orn)-NH2] | 2 nM | 130 nM |
| TICSRS[tBuAla]PPI[NMeC]I-NH2 (disulfide 3-11; N-terminus assumed; SMILES CC[C@H](C)[C@H](NC(=O)[C@@H]1CSSC[C@H](NC(=O)[C@@H](NC(=O)[C@@H](N)[C@@H](C)O)[C@@H](C)CC)C(=O)N[C@@H](CO)C(=O)N[C@@H](CCCNC(=N)N)C(=O)N[C@@H](CO)C(=O)N[C@@H](CC(C)(C)C)C(=O)N2CCC[C@H]2C(=O)N2CCC[C@H]2C(=O)N[C@@H]([C@@H](C)CC)C(=O)N1C)C(N)=O) [TIC+SRS-((tBu)A)-PPI-((N-Me)C)+I-NH2] | 2 nM | 80 nM |

Next, values leading:

| human MASP1 IC50 [1] | human MASP2 IC50 [2] | Binder |
| --- | --- | --- |
| 2 nM | 24 nM | A[Cba]CSRS[tBuAla]PPI[Pen]IPD-NH2 (disulfide 3-11; N-terminus assumed; SMILES CC[C@H](C)[C@@H]1NC(=O)[C@@H]2CCCN2C(=O)[C@@H]2CCCN2C(=O)[C@H](CC(C)(C)C)NC(=O)[C@H](CO)NC(=O)[C@H](CCCNC(=N)N)NC(=O)[C@H](CO)NC(=O)[C@@H](NC(=O)[C@H](CC2CCC2)NC(=O)[C@H](C)N)CSSC(C)(C)[C@@H](C(=O)N[C@H](C(=O)N2CCC[C@H]2C(=O)N[C@@H](CC(=O)O)C(N)=O)[C@@H](C)CC)NC1=O) [A-(Cba)-C+SRS-((tBu)A)-PPI-(Pen)+IPD-NH2] |
| 2.1 nM | 96 nM | [Sar]ICSRSLP[Oic]I[Pen]IPD[PEG3]-NH2 (disulfide 3-11; N-terminus assumed; SMILES CC[C@H](C)[C@H](NC(=O)CNC)C(=O)N[C@H]1CSSC(C)(C)[C@@H](C(=O)N[C@H](C(=O)N2CCC[C@H]2C(=O)N[C@@H](CC(=O)O)C(=O)NCCOCCOCCOCCC(N)=O)[C@@H](C)CC)NC(=O)[C@H]([C@@H](C)CC)NC(=O)[C@@H]2C[C@@H]3CCCC[C@@H]3N2C(=O)[C@@H]2CCCN2C(=O)[C@H](CC(C)C)NC(=O)[C@H](CO)NC(=O)[C@H](CCCNC(=N)N)NC(=O)[C@H](CO)NC1=O) [((N-Me)G)-IC+SRSLP-(Oic)-I-(Pen)+IPD-(PEG2(13 atoms))-NH2] |
| 2.1 nM | 72 nM | IICSRS[tBuAla]PPI[Pen]IPD-NH2 (disulfide 3-11; N-terminus assumed; SMILES CC[C@H](C)[C@H](N)C(=O)N[C@H](C(=O)N[C@H]1CSSC(C)(C)[C@@H](C(=O)N[C@H](C(=O)N2CCC[C@H]2C(=O)N[C@@H](CC(=O)O)C(N)=O)[C@@H](C)CC)NC(=O)[C@H]([C@@H](C)CC)NC(=O)[C@@H]2CCCN2C(=O)[C@@H]2CCCN2C(=O)[C@H](CC(C)(C)C)NC(=O)[C@H](CO)NC(=O)[C@H](CCCNC(=N)N)NC(=O)[C@H](CO)NC1=O)[C@@H](C)CC) [IIC+SRS-((tBu)A)-PPI-(Pen)+IPD-NH2] |
| 2.1 nM | 20 nM | [Sar]ICSRSL[Pro(3S,4R-methano)]PI[Pen]IP-NH2 (disulfide 3-11; N-terminus assumed; SMILES CC[C@H](C)[C@H](NC(=O)CNC)C(=O)N[C@H]1CSSC(C)(C)[C@@H](C(=O)N[C@H](C(=O)N2CCC[C@H]2C(N)=O)[C@@H](C)CC)NC(=O)[C@H]([C@@H](C)CC)NC(=O)[C@@H]2CCCN2C(=O)[C@@H]2[C@H]3C[C@H]3CN2C(=O)[C@H](CC(C)C)NC(=O)[C@H](CO)NC(=O)[C@H](CCCNC(=N)N)NC(=O)[C@H](CO)NC1=O) [((N-Me)G)-IC+SRSL-((1S,2S,5R)-3-azabicyclo[3.1.0]hexane-2-carboxylic acid)-PI-(Pen)+IP-NH2] |
